Assay results: PMC9301129

B1: UNC93B1: N272Q (protein)
parent chain: MEVEPPLYPVAGAAGPQGDEDRHGVPDGPEAPLDELVGAYPNYNEEEEERRYYRRKRLGVVKNVLAASTGVTLTYGVYLGLLQMQLILHYDETYREVKYGNMGLPDIDSKMLMGINVTPIAALLYTPVLIRFFGTKWMMFLAVGIYALFVSTNYWERYYTLVPSAVALGMAIVPLWASMGNYITRMSQKYYEYSHYKEQDEQGPQQRPPRGSHAPYLLVFQAIFYSFFHLSFACAQLPMIYFLNNYLYDLNHTLINVQSCGTKSQGILNGFNKTVLRTLPRSKNLIVVESVLMAVAFLAMLMVLGLCGAAYRPTEEIDLRSVGWGNIFQLPFKHVRDFRLRHLVPFFIYSGFEVLFACTGFALGYGVCSMGLERLAYLLIAYSLGASASSVLGLLGLWLPRSVPLVAGAGLHLLLTLSLFFWAPAPRVLQHSWIFYFVAALWGVGSALNKTGLSTLLGILYEDKERQDFIFTIYHWWQAVAIFVVYLGSSLPMKAKLAVLLVTLVAAAASYLWMEQKLQQGLVPRQPRIPKPQHKVRGYRYLEEDNSDESDMEGEQGQGDCAEDEAPQAGPLGAEPAGPCRKPCPYEQALGGDGPEEQ
B2: UNC93B1: N251Q (protein)
parent chain: B1 parent chain
B3: UNC93B1: N251Q/N272Q (protein)
parent chain: B1 parent chain

Legend:
Details in all cases: glycan lost; control: UNC93B1(WT)
[1] = cycloheximide chase, anti-GFP blot, UNC93B1 KO iBMDM
[2] = streptavidin pull-down, anti-myc blot, KO iBMDM
[3] = confocal microscopy, TLR9-GFP with CD63-cherry, KO BMDC
[4] = blot of TLR9 in isolated phagosomes
[5] = TLR9 co-IP after CpG DNA, anti-MyD88 blot
[6] = cycloheximide chase, anti-myc blot, full-length and cleaved TLR9
[7] = confocal microscopy, colocalisation with CD63, KO BMDC

Protein	degradation_or_half_life [1]	other: CpG DNA binding by client TLR9 [2]	other: endosomal localisation of client TLR9 [3]	other: TLR9 trafficking to phagosomes [4]	other: MyD88 recruitment to TLR9 [5]	other: stability and processing of client TLR9 [6]	localisation_or_trafficking [7]
B1	no change	no change	no change	no change	decreases	no change	no change
B2	no change	no change	no change		no change	no change	no change
B3					decreases		
